In patent publication US20230406901A1:

Target: growth hormone receptor (GHR) on BAF3/GHR cells
Experiment: cell-based or functional assay

With “growth hormone fusion protein containing a flexible linker, GH(GGGGS)4 (from UniProt P01861 100-325) (Fc fusion)” the EC50(nM), proliferation of BAF3/GHR cells (Alamar-Blue) was 3.19 nM and the Relative potency, proliferation of BAF3/GHR cells (Alamar-Blue) was 37.7%.
